Test system: Bacillus subtilis
Assay: cleaved RNA product abundance (RNA/gDNA barcode ratio) relative to median wild-type variant (ratio to wild type); higher = more accumulation of the downstream cleavage product
Summary of the method: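 Reporter mRNAs (truncated aprE or tetM) carrying barcoded, mutagenized RNase Y cleavage-site windows were made from oligos with a 9% error rate and integrated into the B. subtilis chromosome. Cultures grew in LB at 37°C from OD600 0.0003 to 0.3. Cleaved RNA was gel-selected, reverse transcribed and barcode-sequenced alongside genomic DNA barcodes, with UMI collapsing. Cleaved product abundance is the RNA:gDNA barcode ratio per variant, scaled to the median wild-type variant.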

[1] = experiment (reporter, strain, medium): exp 4a: truncated aprE reporter, strain BJT201 with 2% xylose (RNase J1 expressed), cleavage site: cggR-gapA (positions -7 to +36 mutated)
[2] = experiment (reporter, strain, medium): exp 8a: truncated aprE reporter, strain BJT201 with 2% xylose (RNase J1 expressed), cleavage site: glnRA (positions -5 to +31 mutated)
[3] = experiment (reporter, strain, medium): exp 2b: truncated aprE reporter, strain BJT200, cleavage site: cggR-gapA (positions -7 to +36 mutated)

Sequence: ACAGACGAAGGAGCCGCAAAGAATTTATTAAGGGATGAATAATCCCTCAATATAAATATCTCTCACTTATTAAAG
- cleaved RNA product abundance [1]: 0.836

Sequence: CGACATGTCCCGCTTCTTTCATTAATCCGTTAGCAAATGTTATGCTATATACATTTACCTTTTAAGAGGAGGAAT
- cleaved RNA product abundance [2]: 0.766

Sequence: ACAGACGAAGGAGCCGCAAAGAAGTTATAAAGGGATGAATAACCCCTCAATATAAATATCTCTCACTTATTTAAA
- cleaved RNA product abundance [1]: 0.261

Sequence: CGACATGTCCCGCTTCTTTCATTAATCCGTTTGCAACTGATTTGCTATATACATTTACCTTTTAAGAGGAGGAAT
- cleaved RNA product abundance [2]: 0.51

Sequence: ACAGACGAAGGAGCCGCAAAGAAGATATTAAGGGATGAATAATCCCTCAAAATAAATATCTCTCACTTATTTAAA
- cleaved RNA product abundance [3]: 0.15
- cleaved RNA product abundance [1]: 0.205

Sequence: ACAGACGAAGGAGCCGCAAAGAAGTTTTTAAGGAATGAATAATCCCTCAATATAAATATCTCTCACTTATTTAAA
- cleaved RNA product abundance [3]: 0.0825
- cleaved RNA product abundance [1]: 0.163

Sequence: ACAGACGAAGGAGCCGCAAAGAAGTTATTAAGGAATGAATAATCCCGCAATATAAATATCTCTCACTTATTTAAA
- cleaved RNA product abundance [1]: 0.0576

Sequence: ACAGACGAAGGAGCCGCAACGAAATTATTAAGGGATGAATAATCCCTCAATATAAATATCTCTCACTTATTTAAA
- cleaved RNA product abundance [3]: 1.1
- cleaved RNA product abundance [1]: 1.03

Sequence: ACAGACGAAGGAGCCGCAAAGGAGTTATTAAGGAATGAATAATCCCTCAATATAAATATCTCTCACTTATTTAAA
- cleaved RNA product abundance [1]: 0.144

Sequence: CGACATGTCCCGCTTCTTTCATTAATCCGTTAGCAAATGATTTGCTATATACATTTACCTTTTAAGAGGAGGAAT
- cleaved RNA product abundance [2]: 1.28

Sequence: ACAGACGAAGGAGCCGCAAAGAAGTTATTAAGCGATGAATAATGCCTCAATATAAATATCTCTCACTTATTTAAA
- cleaved RNA product abundance [1]: 0.112

Sequence: ACAGACGAAGGAGCCGCAAAGAAGTTATTACCGGATGAATAATCCCTCAATATAAATATCTCTCACTTATTTAAA
- cleaved RNA product abundance [1]: 0.155

Sequence: ACAGACGAAGGAGCCGCAAAGAAGTTATTACAGGATGAATAATCCCTCAATATAAATATCTCTCACTTATTTAAA
- cleaved RNA product abundance [1]: 0.165

Sequence: ACAGACGAAGGAGCCGCAAAGAAGTTATTAAGGGATGACTAATTCCTCAATATAAATATCTCTCACTTATTTAAA
- cleaved RNA product abundance [1]: 0.314

Sequence: ACAGACGAAGGAGCCGCAAAGTAGTTATTAAGGGATGAATAATCCCTCAATATAAATATCTCTCACTTATTTAAA
- cleaved RNA product abundance [3]: 0.953
- cleaved RNA product abundance [1]: 0.98
- cleaved RNA product abundance (experiment (reporter, strain, medium): exp 6: tetM reporter, strain 168, cleavage site: cggR-gapA (positions -7 to +36 mutated)): 1.09

Sequence: ACAGACGAAGGAGCCGCAAATAAGTTAATAAGGGATGAATAATCCCTCAATATAAATATCTCTCACTTATTTAAA
- cleaved RNA product abundance [3]: 0.247
- cleaved RNA product abundance [1]: 0.343

Sequence: CGACATGTCCCGCTTCTTTCATTAGTCCGTTAGCAACTGTTTTGCTATATATATTTACCTTTTAAGAGGAGGAAT
- cleaved RNA product abundance [2]: 0.842

Sequence: ACAGACGAAGGAGCCGCAACGAAGTTATTAAGGGATGAATAATCCCTCAATGTAAATATCTCTCACTTATTTAAA
- cleaved RNA product abundance [1]: 0.11

Sequence: ACAGACGAAGGAGCCGCAAAGAAGATATTAAGGTATGAATAATCTCTCAATATAAATATCTCTCACTTATTTAAA
- cleaved RNA product abundance [3]: 0.105

Sequence: CGACATGTCCCGCTTCTTTCATTAATACGTTAGCAACTGTTTTGCTAAATACATTTACCTTTTAAGAGGAGGAAT
- cleaved RNA product abundance [2]: 0.266

Sequence: ACAGACGAAGGAGCCGCAAAGAAGTTATTAAGGGATGAATAATCCTCAATATAAATATCTCTCACTTATTTAAAG
- cleaved RNA product abundance [3]: 0.205
- cleaved RNA product abundance [1]: 0.309

Sequence: ACAGACGAAGGAGCCGCAAAGAAGTTATCAAGGGATGAATAATCCCTCAATATAATTATCTCTCACTTATTTAAA
- cleaved RNA product abundance [1]: 0.218

Sequence: ACAGACGAAGGAGCCGCAAAGAAGTTATTAAGGGATGAATAATCCCTCAATATAAATATCTCTCCTTATTTAAAG
- cleaved RNA product abundance [3]: 0.315

Sequence: CGACATGTCCCGCTTCTTTCATTAATCCGTCAGCAACTTTTTTGCTATATACATTTACCTTTTAAGAGGAGGAAT
- cleaved RNA product abundance [2]: 0.621

Sequence: CGACATGTCCCGCTTCTTTCATTAAACCGTTAGCAACTGTTTTGCTATATAGATTTACCTTTTAAGAGGAGGAAT
- cleaved RNA product abundance [2]: 1.35

Sequence: CGACATGTCCCGCTTCTTTCATTAATCCGTGAGCAACTGTTTAGCTATATACATTTACCTTTTAAGAGGAGGAAT
- cleaved RNA product abundance [2]: 0.335

Sequence: CGACATGTCCCGCTTCTTTCATTAATCTGTGAGCAACTGTTTTGCTATATACATTTACCTTTTAAGAGGAGGAAT
- cleaved RNA product abundance [2]: 0.777

Sequence: CGACATGTCCCGCTTCTTTCATTACTCCGTTAGCTACTGTTTTGCTATATACATTTACCTTTTAAGAGGAGGAAT
- cleaved RNA product abundance [2]: 0.923

Sequence: ACAGACGAAGGAGCCGCAAAGACGTTATTAAGGGATGAATAATCCCTCCATATAAATATCTCTCACTTATTTAAA
- cleaved RNA product abundance [3]: 0.338

Sequence: CGACATGTCCCGCTTCTTTCATTAATCCGTTAGCAACTGTTTTGCTATATACATTAGCCTTTTAAGAGGAGGAAT
- cleaved RNA product abundance [2]: 0.519

Sequence: ACAGACGAAGGAGCCGCAAAGAAGTTATTAAGGGATGACTAATCCCTCAAAATAAATATCTCTCACTTATTTAAA
- cleaved RNA product abundance [3]: 0.192

Source: the supplement of paper PMC11780869
